Laboratory results reported in publication PMC2198831 (The Journal of Cell Biology, 2001).
Numbering of substitutions follows the chain as printed.

Assays:
[1] = biological target: T1, yeast capping protein Cap1/2p, purified (S. cerevisiae, UniProt P28495;P13517); experiment: native gel or EMSA
T1 sequence 1: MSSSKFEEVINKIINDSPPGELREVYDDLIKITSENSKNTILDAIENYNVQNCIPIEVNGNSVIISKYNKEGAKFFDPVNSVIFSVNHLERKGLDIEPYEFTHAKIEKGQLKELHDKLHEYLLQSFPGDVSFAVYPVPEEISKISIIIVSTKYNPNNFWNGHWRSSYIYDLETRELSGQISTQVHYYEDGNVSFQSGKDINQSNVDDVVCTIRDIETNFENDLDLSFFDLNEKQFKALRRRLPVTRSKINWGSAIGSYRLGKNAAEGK
T1 sequence 2: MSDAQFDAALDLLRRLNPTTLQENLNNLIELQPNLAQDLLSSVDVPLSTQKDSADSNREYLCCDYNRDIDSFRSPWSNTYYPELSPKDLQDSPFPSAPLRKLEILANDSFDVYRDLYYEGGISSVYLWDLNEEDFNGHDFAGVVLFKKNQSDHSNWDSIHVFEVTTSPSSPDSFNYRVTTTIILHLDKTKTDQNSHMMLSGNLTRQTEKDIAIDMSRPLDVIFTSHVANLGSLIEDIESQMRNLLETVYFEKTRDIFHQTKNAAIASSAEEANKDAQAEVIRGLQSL

yeast actin monomers = yeast actin monomers (S. cerevisiae, UniProt P60010 1-375); experiment: native gel or EMSA

B1: yeast twinfilin (Twf1p), wild type, purified recombinant (natural protein)
chain: MSTQSGIVAEQALLHSLNENLSADGIVIIIAKISPDSTSVHQTQVARSFEELVQLASQEREPLYIFYKPEGLDKYFFVSFIPDGSPVRSRMLYASTKNTLARQVGSNSLSTEQPLITDAQDLVDLKNFDSARPAGQNKPLTHDEEMQIEINKQQALLRKNTSVKLVSQDSASPLSLTFRVNSEKPINEILDSEGKNLIIFQIDPSNETIQIVQSDTCPSVDELYIDLPGPSYTIFRQGDSSFFIYSCPSGSKVKDRMIYASNKNGFINYLKNDQKIAFSKVVEIGDFVELDKSLLMATNKEDSLDHGSNPDLPNKSNLKFNKPKGPLRKRRT
binding result [1]: binds | binding result (yeast actin monomers): binds

B2: Twf1-3p mutant yeast twinfilin (alanines in both ADF-H domains) (natural protein)
chain: B1 chain with R88A, R90A, K254A, R256A
binding result [1]: binds
